Assay results reported in US20240376151A1 (FOG PHARMACEUTICALS, published 2024).
Each block holds one binder with its values, some of them ahead of it. Bridge positions count the residues as written; N and C are the ends.

Experiments:
[1] = target: T1, beta-catenin Armadillo domain, residues 134-665 (human, UniProt P35222 134-665, biotinylated through the N-terminal yBBr tag for SPR; tag cleaved off for crystallography); assay: SPR, immobilized β-catenin, MDM2 flowed in the presence of 1 µM Helicon H330 (1.m112)
T1 construct: also called β-catenin; CTNNB1
T1 sequence: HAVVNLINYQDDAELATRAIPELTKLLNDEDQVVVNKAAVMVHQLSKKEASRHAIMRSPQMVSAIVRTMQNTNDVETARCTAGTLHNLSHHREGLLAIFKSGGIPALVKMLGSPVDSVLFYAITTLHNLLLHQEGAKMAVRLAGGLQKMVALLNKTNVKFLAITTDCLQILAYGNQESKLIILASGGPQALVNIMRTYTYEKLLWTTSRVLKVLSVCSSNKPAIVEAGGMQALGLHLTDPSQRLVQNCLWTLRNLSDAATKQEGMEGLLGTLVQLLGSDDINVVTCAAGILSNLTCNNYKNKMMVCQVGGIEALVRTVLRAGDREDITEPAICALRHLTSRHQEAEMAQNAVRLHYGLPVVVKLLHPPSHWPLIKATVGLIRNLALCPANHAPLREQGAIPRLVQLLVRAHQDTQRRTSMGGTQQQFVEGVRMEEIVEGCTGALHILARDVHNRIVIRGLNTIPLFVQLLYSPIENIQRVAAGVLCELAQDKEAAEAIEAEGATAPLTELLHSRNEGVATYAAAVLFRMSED

[2] = target: T1, beta-catenin Armadillo domain, residues …; assay: SPR, immobilized β-catenin, MDM2 flowed in the presence of 1 µM Helicon H332 (1.m114)
[3] = target: T2, PPIA, full length (residues 1-165) (human, UniProt P62937 1-165); assay: assay not named on the sheet; printed beside the co-crystal structure
T2 construct: also called Cyclophilin A; peptidyl-prolyl cis-trans isomerase A

[4] = target: T1, beta-catenin Armadillo domain, residues …; assay: SPR, alanine-scanning table
[5] = target: CDK2:Cyclin E1 (CCNE1) complex (UniProt P24864 81-363); assay: SPR, ligand CDK2 (pT160) : CCNE1
[6] = target: T3, active CDK2 (with T160 phosphorylated) (Homo sapiens (Human), UniProt P24941 1-298); assay: SPR, ligand CDK2 (pT160), no additive
[7] = target: T3, active CDK2 (with T160 phosphorylated); assay: SPR, ligand CDK2 (pT160), additive 200 nM Dinaciclib
[8] = target: T3, active CDK2 (with T160 phosphorylated); assay: SPR, ligand CDK2 (pT160), additives 2 mM AMPPNP, 5mM MgCl2
[9] = target: T2, PPIA, full length (residues 1-165); assay: SPR, affinity fit

T2 sequence (P62937 whole entry, the tested form may be a part): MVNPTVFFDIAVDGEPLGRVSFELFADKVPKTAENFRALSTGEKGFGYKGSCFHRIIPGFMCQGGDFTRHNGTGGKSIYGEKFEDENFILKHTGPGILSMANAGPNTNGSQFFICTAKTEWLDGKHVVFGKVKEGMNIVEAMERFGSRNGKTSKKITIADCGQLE

Binder: Ac-PECHIEAYWCI-NH2 (bridge 3-10; not fully specified (bridges); printed as Ac-PECHIEA YWCI-NH2, Cluster C54) [FP29102]
Kd [3]: 11000 nM

B2: FP49251 (peptide)
stapled peptide: Ac-DPATARCEWAALHCELV-NH2
modifications: bridge 7-14; not fully specified (bridges); printed as Ac-DPATARCEWAALHCELV-NH2
notes: also called H-to-A member of the alanine-scanning series of FP01567
Kd [4]: 400 nM

B4: FP49252 (peptide)
stapled peptide: Ac-DPATHACEWAALHCELV-NH2
modifications: bridge 7-14; not fully specified (bridges); printed as Ac-DPATHACEWAALHCELV-NH2
notes: also called R-to-A member of the alanine-scanning series of FP01567
Kd [4]: 300 nM

B10: FP33215 (peptide)
peptide: Ac-WWVCAIAAIECSD-NH2
modifications: bridge 4-11; also: Cys staple linker not named
notes: also called truncated version of FP19711
Kd [5]: 270 nM

Binder: Ac-DPAWWVCAIAAIECSDV-NH2 (bridge 7-14; not fully specified (bridges), Cluster C51) [FP19711]
Kd [5]: 1700 nM
Kd [6]: 1700 nM
Kd [7]: 2000 nM
Kd [8]: 900 nM

Binder: Ac-DPANQDCHVAAWHCWQR-NH2 (bridge 7-14; not fully specified (bridges), Cluster C53) [FP29092]
Kd [9]: 3000 nM

Binder: Ac-PDCHIRAYVCH-NH2 (bridge 3-10; not fully specified (bridges), Cluster C54) [FP29103]
Kd [9]: 10000 nM

Results, then the binder that gave them:

Kd [1]: 254 nM
Kd [2]: 1340 nM
B1: MDM2 p53-binding domain, residues 17-111, C17S (enzyme)
chain: SQIPASEQETLVRPKPLLLKLLKSVGAQKDTYTMKEVLFYLGQYIMTKRLYDEKQQHIVYCSNDLLGDLFGVPSFSVKEHRKIYTMIYRNLVVVN
notes: Form for crystallography and the FP assays

Kd [4]: > 20000 nM
B3: FP49258 (peptide)
stapled peptide: Ac-DPATHRCEWAALHCEAV-NH2
modifications: bridge 7-14; not fully specified (bridges); printed as Ac-DPATHRCEWAALHCEAV-NH2
notes: also called L-to-A (penultimate residue) member of the alanine-scanning series of FP01567

Kd [4]: > 20000 nM
B5: FP49255 (peptide)
stapled peptide: Ac-DPATHRCEWAAAHCELV-NH2
modifications: bridge 7-14; not fully specified (bridges); printed as Ac-DPATHRCEWAAAHCELV-NH2
notes: also called L-to-A member of the alanine-scanning series of FP01567

Kd [4]: > 20000 nM
B6: FP49254 (peptide)
stapled peptide: Ac-DPATHRCEAAALHCELV-NH2
modifications: bridge 7-14; not fully specified (bridges); printed as Ac-DPATHRCEAAALHCELV-NH2
notes: also called W-to-A member of the alanine-scanning series of FP01567

Kd [4]: 2700 nM
B7: FP49253 (peptide)
stapled peptide: Ac-DPATHRCAWAALHCELV-NH2
modifications: bridge 7-14; not fully specified (bridges); printed as Ac-DPATHRCAWAALHCELV-NH2
notes: also called E-to-A member of the alanine-scanning series of FP01567

Kd [4]: > 20000 nM
B8: FP49259 (peptide)
stapled peptide: Ac-DPATHRCEWAALHCELA-NH2
modifications: bridge 7-14; not fully specified (bridges)
notes: also called V-to-A (last residue) member of the alanine-scanning series of FP01567

Kd [4]: 1000 nM
B9: FP49257 (peptide)
stapled peptide: Ac-DPATHRCEWAALHCALV-NH2
modifications: bridge 7-14; not fully specified (bridges); printed as Ac-DPATHRCEWAALHCALV-NH2
notes: also called E-to-A (after the second Cys) member of the alanine-scanning series of FP01567
